Source: US20230322953A1

Experiments:
[1] = target: human CD3 (TCR/CD3 complex) on human T cells (human) (UniProt P07766); experiment: flow cytometry (FACS) on human T cells, Experiment 2, isotype control
[2] = target: human CD3 (TCR/CD3 complex) on human T cells (human) (UniProt P07766); experiment: flow cytometry (FACS) on human T cells, Experiment 3, isotype control
[3] = target: cynomolgus monkey CD3 (TCR/CD3 complex) on cynomolgus monkey T cells (cynomolgus monkey); experiment: flow cytometry (FACS) on cynomolgus monkey T cells, isotype control
cynomolgus monkey CD3 (TCR/CD3 complex) on cynomolgus monkey T cells (cynomolgus monkey), sequence (Q95LI5 22-198, one chain of several): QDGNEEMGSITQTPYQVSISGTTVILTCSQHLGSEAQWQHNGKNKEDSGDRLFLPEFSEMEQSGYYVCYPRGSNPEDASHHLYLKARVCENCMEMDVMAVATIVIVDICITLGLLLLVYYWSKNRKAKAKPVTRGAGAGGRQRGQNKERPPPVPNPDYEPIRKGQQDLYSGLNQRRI

human CD3 (TCR/CD3 complex) on human T cells (human), sequence (P07766 23-207, one chain of several): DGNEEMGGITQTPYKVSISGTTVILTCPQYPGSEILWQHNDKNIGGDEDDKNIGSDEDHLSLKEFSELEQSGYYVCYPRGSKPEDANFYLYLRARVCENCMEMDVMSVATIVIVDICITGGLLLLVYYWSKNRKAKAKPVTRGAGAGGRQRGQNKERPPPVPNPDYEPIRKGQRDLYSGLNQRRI

Substance: hIgG1 iso (CrownBio, #C0001) (antibody)
- Maximum MFI [1]: 12 MFI
- Maximum MFI [2]: 3000 MFI
- Maximum MFI [3]: 794 MFI
